We go through 1 substance from PMC7619190.

Experiment [1] deals with human SRC SH2 domain (Gln147-Lys252) C188A (human) (UniProt P12931). The experiment is described as follows: ITC; peptide (400 uM) titrated into SRC SH2 (40 uM) in the cell, 25 C, MicroCal PEAQ-ITC Automated; SH2 domain pretreated with 1 mM TCEP (reducing conditions).
The target is the same in experiment [2]. As to the kind of experiment: ITC; peptide (400 uM) titrated into SRC SH2 (40 uM) in the cell, 25 C, MicroCal PEAQ-ITC Automated; SH2 domain pretreated with 0.1 mM PV (oxidised).

Turning to “SRC C-terminal phosphopeptide (spanning pY530)”, the fold increase in affinity against SH2 WT in experiment [1] was determined as 5 fold. The fold lower affinity against reducing conditions in experiment [2] was found to be 3.5 fold.
